From US20050048070A1 (published 2005)

What was measured:
bovine serum albumin = target: T1, bovine serum albumin (bovine, UniProt P02769 25-607); assay: ELISA on coated antigens (data not shown)
T1 construct: Irrelevant antigen in the ELISA; also called BSA

ovalbumin = target: T2, ovalbumin (UniProt P01012 2-386); assay: ELISA on coated antigens (data not shown)
T2 construct: Irrelevant antigen in the ELISA
T2 sequence (looked up): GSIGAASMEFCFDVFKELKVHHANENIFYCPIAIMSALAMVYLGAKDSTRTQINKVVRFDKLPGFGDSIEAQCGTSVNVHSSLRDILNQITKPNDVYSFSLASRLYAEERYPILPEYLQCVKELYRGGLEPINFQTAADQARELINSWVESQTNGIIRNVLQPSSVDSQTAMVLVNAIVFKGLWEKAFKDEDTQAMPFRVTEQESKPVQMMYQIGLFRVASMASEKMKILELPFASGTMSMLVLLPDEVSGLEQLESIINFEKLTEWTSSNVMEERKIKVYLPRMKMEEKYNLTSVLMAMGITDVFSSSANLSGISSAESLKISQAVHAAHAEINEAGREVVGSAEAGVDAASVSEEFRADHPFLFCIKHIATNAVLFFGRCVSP

T1 sequence (P02769 25-607 limits assumed): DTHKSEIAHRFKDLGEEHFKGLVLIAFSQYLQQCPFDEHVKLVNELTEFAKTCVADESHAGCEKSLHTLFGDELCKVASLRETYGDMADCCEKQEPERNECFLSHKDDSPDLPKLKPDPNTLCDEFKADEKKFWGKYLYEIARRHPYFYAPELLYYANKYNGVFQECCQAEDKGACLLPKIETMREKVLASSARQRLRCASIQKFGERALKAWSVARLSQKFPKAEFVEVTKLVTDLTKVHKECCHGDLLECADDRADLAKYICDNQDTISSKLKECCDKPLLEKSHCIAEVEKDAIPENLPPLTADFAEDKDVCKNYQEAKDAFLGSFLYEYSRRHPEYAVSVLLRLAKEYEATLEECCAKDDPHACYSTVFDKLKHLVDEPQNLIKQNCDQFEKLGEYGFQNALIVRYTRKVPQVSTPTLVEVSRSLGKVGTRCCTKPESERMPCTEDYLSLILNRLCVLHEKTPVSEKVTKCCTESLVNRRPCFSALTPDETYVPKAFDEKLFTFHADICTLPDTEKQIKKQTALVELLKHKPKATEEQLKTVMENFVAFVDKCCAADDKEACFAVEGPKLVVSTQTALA

B1: recombinant B9165 Fab (Fab, V domains shown)
VH: GAEVKKPGASVKVSCKASDYTFSSYYMHWVRQAPGQGLEWMGIINPSGGSTSYAQKFQGRVTMTRDTSTNTVYMELSSLRSEDTAVYYCARDQVVVAATLSNYGMDVWGQGTTVTVSS
VL: ELTQSPGTLSLSPGERATLSCRASQSVSSSYLAWYQQKPGQAPRLLIYDASNRATGIPARFSGSGSGTDFTLTISSLEPEDFAVYYCQQGTNWGIAFGQGTRLDIKR
notes: Soluble Fab (mu Fd region plus kappa light chain) cloned from hybridoma B9165 by phage display in pComb3 and expressed in E. coli; also called cloned B9165 Fab; Fab of COU-1
binding result (bovine serum albumin): no binding | binding result (ovalbumin): no binding
